# Substitutions are numbered along the chain they refer to. Numbered stars: 1 amine (or outer) side, 2 acyl side, 3 side chain; on linkers, the order of the positions; unused ones are H or OH. Square brackets hold non-standard residues; d marks the D form. Side chains are listed from the residue outwards. Ends that are not written are not given here. * marks the point of attachment. C20 diacid = O=C(O)CCCCCCCCCCCCCCCCCCC(=O)*; γGlu = O=C(O)[C@H](CCC(=O)[*:2])N[*:1]; αMeL = CC(C)C[C@](C)(N)C(=O)O; Dab = NCC[C@H](N)C(=O)O; Dap = NC[C@H](N)C(=O)O; AEEA = NCCOCCOCC(=O)O; Aib = CC(C)(N)C(=O)O
# B1: Example 338 (peptide)
# peptide: FXEGTFTSDYSIXLDKKAQXEFIEYLIAGGPSSGAPPPS
# modifications: not fully specified; Aib2, αMeL13, (2-[2-(2-Amino-ethoxy)-ethoxy]-acetyl)2-(γ-Glu)-CO-(CH2)18-CO2H on K17, Aib20, C-terminal NH2
# B2: Example 342 (peptide)
# peptide: B1 peptide with F1X, K16E
# modifications: not fully specified; D-Tyr1, Aib2, αMeL13, (2-[2-(2-Amino-ethoxy)-ethoxy]-acetyl)2-(γ-Glu)-CO-(CH2)18-CO2H on K17, Aib20, C-terminal NH2
# B3: Example 352 (peptide)
# peptide: B1 peptide with F1X, E21A, E24X
# modifications: D-Tyr1, Aib2, αMeL13, (2-[2-(2-Amino-ethoxy)-ethoxy]-acetyl)2-(γ-Glu)-CO-(CH2)18-CO2H on K17, Aib20, D-Glu24, C-terminal NH2
# B4: Example 343 (peptide)
# peptide: B1 peptide with F1Y, K16E, E21A, E24X
# modifications: not fully specified; Aib2, αMeL13, (2-[2-(2-Amino-ethoxy)-ethoxy]-acetyl)2-(γ-Glu)-CO-(CH2)18-CO2H on K17, Aib20, D-Glu24, C-terminal NH2
# B5: Example 340 (peptide)
# peptide: B1 peptide with F1X, E21A
# modifications: not fully specified; D-Tyr1, Aib2, αMeL13, (2-[2-(2-Amino-ethoxy)-ethoxy]-acetyl)2-(γ-Glu)-CO-(CH2)18-CO2H on K17, Aib20, C-terminal NH2
# B6: Example 353 (peptide)
# peptide: B1 peptide with F1X, E24X, A28E
# modifications: D-Tyr1, Aib2, αMeL13, (2-[2-(2-Amino-ethoxy)-ethoxy]-acetyl)2-(γ-Glu)-CO-(CH2)18-CO2H on K17, Aib20, D-Glu24, C-terminal NH2
# B7: Example 344 (peptide)
# peptide: B1 peptide with F1Y, K16E, E21D
# modifications: Aib2, αMeL13, (2-[2-(2-Amino-ethoxy)-ethoxy]-acetyl)2-(γ-Glu)-CO-(CH2)18-CO2H on K17, Aib20, C-terminal NH2
# B8: Example 339 (peptide)
# peptide: B1 peptide with F1Y
# modifications: not fully specified; Aib2, αMeL13, (2-[2-(2-Amino-ethoxy)-ethoxy]-acetyl)-(γ-Glu)-CO-(CH2)18-CO2H on K17, Aib20, C-terminal NH2
# B9: Example 341 (peptide)
# peptide: B1 peptide with F1X, K16E, E21A
# modifications: not fully specified; D-Tyr1, Aib2, αMeL13, (2-[2-(2-Amino-ethoxy)-ethoxy]-acetyl)2-(γ-Glu)-CO-(CH2)18-CO2H on K17, Aib20, C-terminal NH2
# B10: Example 349 (peptide)
# peptide: B1 peptide with F1X, K16X
# modifications: D-Tyr1, Aib2, αMeL13, Orn16, (2-[2-(2-Amino-ethoxy)-ethoxy]-acetyl)2-(γ-Glu)-CO-(CH2)18-CO2H on K17, Aib20, C-terminal NH2
# B11: Example 354 (peptide)
# peptide: B1 peptide with F1X, K16X, E24X
# modifications: D-Tyr1, Aib2, αMeL13, Orn16, (2-[2-(2-Amino-ethoxy)-ethoxy]-acetyl)2-(γ-Glu)-CO-(CH2)18-CO2H on K17, Aib20, D-Glu24, C-terminal NH2
# B12: Example 346 (peptide)
# peptide: B1 peptide with F1X, K16X, E21A
# modifications: D-Tyr1, Aib2, αMeL13, Orn16, (2-[2-(2-Amino-ethoxy)-ethoxy]-acetyl)2-(γ-Glu)-CO-(CH2)18-CO2H on K17, Aib20, C-terminal NH2
# B13: Example 351 (peptide)
# peptide: [dY][Aib]EGTFTSDYSI[αMeL]LD[Dap]K([AEEA-AEEA-γGlu-C20 diacid])AQ[Aib]EFIEYLIAGGPSSGAPPPS-NH2
# modifications: N-terminus assumed
# SMILES: CC[C@H](C)[C@H](NC(=O)[C@H](CC(C)C)NC(=O)[C@H](Cc1ccc(O)cc1)NC(=O)[C@H](CCC(=O)O)NC(=O)[C@@H](NC(=O)[C@H](Cc1ccccc1)NC(=O)[C@H](CCC(=O)O)NC(=O)C(C)(C)NC(=O)[C@H](CCC(N)=O)NC(=O)[C@H](C)NC(=O)[C@H](CCCCNC(=O)COCCOCCNC(=O)COCCOCCNC(=O)CC[C@H](NC(=O)CCCCCCCCCCCCCCCCCCC(=O)O)C(=O)O)NC(=O)[C@H](CN)NC(=O)[C@H](CC(=O)O)NC(=O)[C@H](CC(C)C)NC(=O)[C@](C)(CC(C)C)NC(=O)[C@@H](NC(=O)[C@H](CO)NC(=O)[C@H](Cc1ccc(O)cc1)NC(=O)[C@H](CC(=O)O)NC(=O)[C@H](CO)NC(=O)[C@@H](NC(=O)[C@H](Cc1ccccc1)NC(=O)[C@@H](NC(=O)CNC(=O)[C@H](CCC(=O)O)NC(=O)C(C)(C)NC(=O)[C@H](N)Cc1ccc(O)cc1)[C@@H](C)O)[C@@H](C)O)[C@@H](C)CC)[C@@H](C)CC)C(=O)N[C@@H](C)C(=O)NCC(=O)NCC(=O)N1CCC[C@H]1C(=O)N[C@@H](CO)C(=O)N[C@@H](CO)C(=O)NCC(=O)N[C@@H](C)C(=O)N1CCC[C@H]1C(=O)N1CCC[C@H]1C(=O)N1CCC[C@H]1C(=O)N[C@@H](CO)C(N)=O
# B14: Example 350 (peptide)
# peptide: [dY][Aib]EGTFTSDYSI[αMeL]LD[Dab]K([AEEA-AEEA-γGlu-C20 diacid])AQ[Aib]EFIEYLIAGGPSSGAPPPS-NH2
# modifications: N-terminus assumed
# SMILES: CC[C@H](C)[C@H](NC(=O)[C@H](CC(C)C)NC(=O)[C@H](Cc1ccc(O)cc1)NC(=O)[C@H](CCC(=O)O)NC(=O)[C@@H](NC(=O)[C@H](Cc1ccccc1)NC(=O)[C@H](CCC(=O)O)NC(=O)C(C)(C)NC(=O)[C@H](CCC(N)=O)NC(=O)[C@H](C)NC(=O)[C@H](CCCCNC(=O)COCCOCCNC(=O)COCCOCCNC(=O)CC[C@H](NC(=O)CCCCCCCCCCCCCCCCCCC(=O)O)C(=O)O)NC(=O)[C@H](CCN)NC(=O)[C@H](CC(=O)O)NC(=O)[C@H](CC(C)C)NC(=O)[C@](C)(CC(C)C)NC(=O)[C@@H](NC(=O)[C@H](CO)NC(=O)[C@H](Cc1ccc(O)cc1)NC(=O)[C@H](CC(=O)O)NC(=O)[C@H](CO)NC(=O)[C@@H](NC(=O)[C@H](Cc1ccccc1)NC(=O)[C@@H](NC(=O)CNC(=O)[C@H](CCC(=O)O)NC(=O)C(C)(C)NC(=O)[C@H](N)Cc1ccc(O)cc1)[C@@H](C)O)[C@@H](C)O)[C@@H](C)CC)[C@@H](C)CC)C(=O)N[C@@H](C)C(=O)NCC(=O)NCC(=O)N1CCC[C@H]1C(=O)N[C@@H](CO)C(=O)N[C@@H](CO)C(=O)NCC(=O)N[C@@H](C)C(=O)N1CCC[C@H]1C(=O)N1CCC[C@H]1C(=O)N1CCC[C@H]1C(=O)N[C@@H](CO)C(N)=O
# B15: Example 347 (peptide)
# peptide: [dY][Aib]EGTFTSDYSI[αMeL]LD[Dab]K([AEEA-AEEA-γGlu-C20 diacid])AQ[Aib]AFIEYLIAGGPSSGAPPPS-NH2
# modifications: N-terminus assumed
# SMILES: CC[C@H](C)[C@H](NC(=O)[C@H](CC(C)C)NC(=O)[C@H](Cc1ccc(O)cc1)NC(=O)[C@H](CCC(=O)O)NC(=O)[C@@H](NC(=O)[C@H](Cc1ccccc1)NC(=O)[C@H](C)NC(=O)C(C)(C)NC(=O)[C@H](CCC(N)=O)NC(=O)[C@H](C)NC(=O)[C@H](CCCCNC(=O)COCCOCCNC(=O)COCCOCCNC(=O)CC[C@H](NC(=O)CCCCCCCCCCCCCCCCCCC(=O)O)C(=O)O)NC(=O)[C@H](CCN)NC(=O)[C@H](CC(=O)O)NC(=O)[C@H](CC(C)C)NC(=O)[C@](C)(CC(C)C)NC(=O)[C@@H](NC(=O)[C@H](CO)NC(=O)[C@H](Cc1ccc(O)cc1)NC(=O)[C@H](CC(=O)O)NC(=O)[C@H](CO)NC(=O)[C@@H](NC(=O)[C@H](Cc1ccccc1)NC(=O)[C@@H](NC(=O)CNC(=O)[C@H](CCC(=O)O)NC(=O)C(C)(C)NC(=O)[C@H](N)Cc1ccc(O)cc1)[C@@H](C)O)[C@@H](C)O)[C@@H](C)CC)[C@@H](C)CC)C(=O)N[C@@H](C)C(=O)NCC(=O)NCC(=O)N1CCC[C@H]1C(=O)N[C@@H](CO)C(=O)N[C@@H](CO)C(=O)NCC(=O)N[C@@H](C)C(=O)N1CCC[C@H]1C(=O)N1CCC[C@H]1C(=O)N1CCC[C@H]1C(=O)N[C@@H](CO)C(N)=O
# B16: Example 348 (peptide)
# peptide: [dY][Aib]EGTFTSDYSI[αMeL]LD[Dap]K([AEEA-AEEA-γGlu-C20 diacid])AQ[Aib]AFIEYLIAGGPSSGAPPPS-NH2
# modifications: N-terminus assumed
# SMILES: CC[C@H](C)[C@H](NC(=O)[C@H](CC(C)C)NC(=O)[C@H](Cc1ccc(O)cc1)NC(=O)[C@H](CCC(=O)O)NC(=O)[C@@H](NC(=O)[C@H](Cc1ccccc1)NC(=O)[C@H](C)NC(=O)C(C)(C)NC(=O)[C@H](CCC(N)=O)NC(=O)[C@H](C)NC(=O)[C@H](CCCCNC(=O)COCCOCCNC(=O)COCCOCCNC(=O)CC[C@H](NC(=O)CCCCCCCCCCCCCCCCCCC(=O)O)C(=O)O)NC(=O)[C@H](CN)NC(=O)[C@H](CC(=O)O)NC(=O)[C@H](CC(C)C)NC(=O)[C@](C)(CC(C)C)NC(=O)[C@@H](NC(=O)[C@H](CO)NC(=O)[C@H](Cc1ccc(O)cc1)NC(=O)[C@H](CC(=O)O)NC(=O)[C@H](CO)NC(=O)[C@@H](NC(=O)[C@H](Cc1ccccc1)NC(=O)[C@@H](NC(=O)CNC(=O)[C@H](CCC(=O)O)NC(=O)C(C)(C)NC(=O)[C@H](N)Cc1ccc(O)cc1)[C@@H](C)O)[C@@H](C)O)[C@@H](C)CC)[C@@H](C)CC)C(=O)N[C@@H](C)C(=O)NCC(=O)NCC(=O)N1CCC[C@H]1C(=O)N[C@@H](CO)C(=O)N[C@@H](CO)C(=O)NCC(=O)N[C@@H](C)C(=O)N1CCC[C@H]1C(=O)N1CCC[C@H]1C(=O)N1CCC[C@H]1C(=O)N[C@@H](CO)C(N)=O
# Target: T1, human gastric inhibitory peptide receptor (GIPR) (human, UniProt P48546 22-466)
# T1 sequence (looked up): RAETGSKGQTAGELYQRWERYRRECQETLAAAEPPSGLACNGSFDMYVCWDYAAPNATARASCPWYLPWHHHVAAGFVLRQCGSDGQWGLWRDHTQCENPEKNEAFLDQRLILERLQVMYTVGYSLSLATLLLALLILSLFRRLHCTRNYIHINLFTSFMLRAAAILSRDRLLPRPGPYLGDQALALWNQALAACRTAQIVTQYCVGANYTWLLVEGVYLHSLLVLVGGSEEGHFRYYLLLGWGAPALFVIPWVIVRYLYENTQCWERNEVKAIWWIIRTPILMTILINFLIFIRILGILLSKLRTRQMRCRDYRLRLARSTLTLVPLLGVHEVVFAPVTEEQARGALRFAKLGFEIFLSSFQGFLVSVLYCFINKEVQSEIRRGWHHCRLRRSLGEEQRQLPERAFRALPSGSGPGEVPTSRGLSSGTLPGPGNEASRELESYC
# Assay: cell-based or functional assay
Binder,hGIPR cAMP EC50 ratio,hGIPR cAMP Rel EC50 [nM]
B1,1.29,0.0472
B2,0.32,0.159
B3,0.815,0.127
B4,1.84,0.0422
B5,0.852,0.0823
B6,0.145,0.497
B7,1.79,0.0433
B8,3.18,0.0219
B9,0.213,0.238
B10,0.756,0.117
B11,0.441,0.233
B12,0.604,0.144
B13,0.47,0.298
B14,0.741,0.189
B15,0.872,0.0827
B16,0.373,0.193

# Target: human GLP-1 receptor (GLP-1R) (human, UniProt P43220 24-463)
# Assay: cell-based or functional assay
Binder,hGLP1R cAMP EC50 ratio,hGLP1R cAMP Rel EC50 [nM]
B1,0.262,0.174
B2,0.198,0.127
B3,0.201,0.142
B4,0.662,0.124
B5,0.183,0.252
B6,0.0231,1.09
B7,1.86,0.044
B8,0.574,0.0986
B9,0.0674,0.373
B10,0.214,0.121
B11,0.0517,0.54
B12,0.21,0.128
B13,0.22,0.149
B14,0.307,0.107
B15,0.245,0.102
B16,0.224,0.113
